Reference: patent US20230227838A1, “ENHANCED CELL SURVIVAL AGAINST BIOTIC AND ABIOTIC STRESSES THROUGH SALICYLICK ACID-INDUCED NPR1 CONDENSATES” (priority 2020, published 2023)

What was measured:
CUL3 = assay: Co-IP of Myc-CUL3 with HA-fused NPR1 or variants; type: binding, Arabidopsis thaliana
Method: (§1) Plant transformation: For plant transformations, the Agrobacterium tumefaciens strain GV3101 was transformed with plant binary vectors carrying the indicated transgenes. For stable expression in Arabidopsis, a floral dipping method was used. For transient expression in N benthamiana, the Agrobacterium carrying the indicated construct was cultured overnight at 28° C. in Luria-Bertani (LB) broth medium supplemented with appropriate antibiotics: spectinomycin (100 μg/ml), kanamycin (50 μg/ml), gentamycin (50 μg/ml), and rifampicin (25 μg/ml). The obtained culture was re-inoculated at 1:10 into fresh growth media with antibiotics and grown for another 4 hr. Cells were then spun down at 1,600 g for 10 min, and inoculum was prepared by resuspending cells to OD600 nm=1 in double distilled water (DDW) containing 200 μM acetosyringone (Sigma). Unless otherwise stated, for co-IP, co-localization, and BiFC assays in N. benthamiana, the proteins were co-expressed at 1:1 mixture of the relevant Agrobacteria inoculums. In all BiFC assays, the pair of YN/YC fusions was co-expressed together with free mCherry to mark the cytoplasm and nucleus, mCherry-NLS to mark the nucleus only, or mCherry-fused test proteins for co-localization analysis. The inoculum was pressure infiltrated into N. benthamiana leaves at the abaxial side using 1 ml syringe without the needle. Due to low overall levels of NPR1-GFP in transgenic plants, a transient expression assay in Arabidopsis seedlings was used to monitor NPR1-GFP subcellular localization after SA treatment (FIG. 2B). To limit the imaging time in this transient assay (2 hours), a higher baseline SA concentration had to be used. Seeds of WT (Col-0) Arabidopsis were germinated on solid half-strength Murashige and Skoog (1/2 MS) medium and grown for 4 days. Agrobacterium carrying the indicated constructs was grown overnight in LB medium supplemented with appropriate antibiotics. The obtained culture was re-inoculated at 1:10 into virulence induction medium [50.78 mM MES, 0.5% Glucose, 1.734 mM NaH2PO4, 5% of 20X-AB mix (373.9 mM NH4C1, 24.34 mM MgSO4, 40.23 mM KCl, 1.36 mM CaCl2 and 0.18 mM FeSO4·7H2O), 200 μM acetosyringone] supplemented with 25 μg/ml rifampicin and grown for another 24 hr at 28° C. to OD600=0.8 (inoculum). Seedlings were vacuum-infiltrated with the inoculum, and at 48 hpi (hours post inoculation), treatments were performed by submerging the transformed seedlings in water or SA solution at indicated concentrations for 2 hr. Entire cotyledons were sampled for microscopy.
Protein analysis and IP. Recombinant protein analysis was performed using transient expression in N. benthamiana, or stable over-expression in transgenic Arabidopsis, or expression in E. coli. Total protein extraction from plants was performed by homogenizing leaf tissue in the plant extraction buffer [50 mM Tris-HCl (pH 7.5), 150 mM NaCl, 5 mM EDTA, 0.2% Triton X-100, 0.2% Nonidet P-40] supplemented with 1 mM PMSF, 100 μM MG132, and EDTA-free protease inhibitor cocktail (Roche). For ubiquitinated protein analysis in plants, 100 μM of DUB (deubiquitinase) inhibitor (LifeSensors) and 10 mM NEM were added. Next, the lysates were cleared by centrifugation at 14,000 rpm for 15 min followed by filtering through a 0.2 μm filter. […] Pull-downs or IP experiments were done on total protein extracts by incubating protein samples in the lysis buffer overnight with indicated affinity tag or antibody conjugated to agarose or magnetic beads: GFP-trap agarose beads (Chromotek) for GFP fusions; RFP-trap agarose beads (Chromotek) for mCherry fusions; anti-HA magnetic beads (ThermoFisher) for HA tag fusions; anti-DYKDDDDK coupled magnetic agarose (ThermoFisher) for FLAG tag fusions; and glutathione magnetic agarose (ThermoFisher) for GST fusions. Unless otherwise indicated, after pull-down/IP, beads were washed 3 times and proteins were eluted by boiling in the 2×SDS sample buffer. […]

[1] = system: cytoplasmic condensates (SINCs); assay: Confocal imaging of localization and condensate (body) formation of GFP-fused NPR proteins and variants; type: cell-based, Nicotiana benthamiana; conditions: for SA-induced cytoplasmic body/condensate (SINC) formation: 5 mM SA for 2 hr
Method: as §1
Confocal laser scanning microscopy. Unless otherwise indicated, all imaging data and micrographs for single protein imaging, co-localizations, BiFC and time-lapse were obtained from the transient expression in N. benthamiana using the relevant Agrobacteria strains. All imaging was done with confocal laser scanning fluorescence microscopy using Zeiss 880 airyscan inverted confocal microscope with a 40×/1.2 water correction objective. GFP (eGFP) was excited with a 488 nm argon laser and emission was collected with a 505-530 nm band pass filter. YFP was excited with an argon laser using a 514 nm beam splitter, and emission was detected with a 520-555 nm band pass filter. mCherry was excited with a 561 nm diode laser, and emission was detected with a 575-615 nm band pass filter. When eGFP/YFP were imaged together with mCherry, a spectral GASP detector was used to collect emission from eGFP/YFP. Propidium iodide (PI) was excited with 488 nm argon laser and emission was detected with a 590-620 nm band pass filter. Time-lapse imaging was carried out on live leaf tissue samples from N. benthamiana plants transiently expressing the protein of interest. Image acquisition was done in 5 min intervals for the duration of 2 hr by scanning 30 consecutive focal planes along the Z-axis covering the entire thickness of an epidermal cell. Z-projection was done to each time frame stack before composing a final time-lapse file. […]

B1: BTB: BTB domain of NPR1 corresponding to amino acids 65-144 of SEQ ID NO: 1 (protein, listed as Arabidopsis thaliana)
chain: SDAKLVLSDGREVSFHRCVLSARSSFFKSALAAAKKEKDSNNTAAVKLELKEIAKDYEVGFDSVVTVLAYVYSSRVRPPP
CUL3 pull-down in co-IP in the absence of SA (CUL3; absence of SA): sufficient to strongly pulldown CUL3 even in the absence of SA

B2: NPR2: Arabidopsis NPR1 paralog AtNPR2 (AT4G26120) (protein, UniProt Q9SZI3 1-600, looked up)
Regulatory protein NPR2: MATTTTTTTARFSDSYEFSNTSGNSFFAAESSLDYPTEFLTPPEVSALKLLSNCLESVFDSPETFYSDAKLVLAGGREVSFHRCILSARIPVFKSALATVKEQKSSTTVKLQLKEIARDYEVGFDSVVAVLAYVYSGRVRSPPKGASACVDDDCCHVACRSKVDFMVEVLYLSFVFQIQELVTLYERQFLEIVDKVVVEDILVIFKLDTLCGTTYKKLLDRCIEIIVKSDIELVSLEKSLPQHIFKQIIDIREALCLEPPKLERHVKNIYKALDSDDVELVKMLLLEGHTNLDEAYALHFAIAHCAVKTAYDLLELELADVNLRNPRGYTVLHVAAMRKEPKLIISLLMKGANILDTTLDGRTALVIVKRLTKADDYKTSTEDGTPSLKGGLCIEVLEHEQKLEYLSPIEASLSLPVTPEELRMRLLYYENRVALARLLFPVETETVQGIAKLEETCEFTASSLEPDHHIGEKRTSLDLNMAPFQIHEKHLSRLRALCKTVELGKRYFKRCSLDHFMDTEDLNHLASVEEDTPEKRLQKKQRYMELQETLMKTFSEDKEECGKSSTPKPTSAVRSNRKLSHRRLKVDKRDFLKRPYGNGD
SA-induced cytoplasmic body/condensate (SINC) formation [1]: fail to form cytoplasmic condensates

B3: CTD: C-terminal domain (CTD) of NPR1 (protein)
chain: ALMIAKQATMAVECNNIPEQCKHSLKGRLCVEILEQEDKREQIPRDVPPSFAVAADELKMTLLDLENRVALAQRLFPTEAQAAMEIAEMKGTCEFIVTSLEPDRLTGTKRTSPGVKIAPFRILEEHQSRLKALSKTVELGKRFFPRCSAVLDQIMNCEDLTQLACGEDDTAEKRLQKKQRYMEIQETLKKAFSEDNLELGNSSLTDSTSSTSKSTGGKRSNRKLSHRRR
modifications: left off: large carriers
notes: C-terminal domain (CTD) of NPR1
competition with CUL3 for interaction with BTB (CUL3; Myc-CUL3, BTB-HA and CTD-GFP co-expressed): outcompeted CUL3 for interaction with BTB

B4: NPR4: Arabidopsis NPR1 paralog AtNPR4 (AT4G19660) (protein, UniProt Q5ICL9 1-574, looked up)
Regulatory protein NPR4: MAATAIEPSSSISFTSSHLSNPSPVVTTYHSAANLEELSSNLEQLLTNPDCDYTDAEIIIEEEANPVSVHRCVLAARSKFFLDLFKKDKDSSEKKPKYQMKDLLPYGNVGREAFLHFLSYIYTGRLKPFPIEVSTCVDSVCAHDSCKPAIDFAVELMYASFVFQIPDLVSSFQRKLRNYVEKSLVENVLPILLVAFHCDLTQLLDQCIERVARSDLDRFCIEKELPLEVLEKIKQLRVKSVNIPEVEDKSIERTGKVLKALDSDDVELVKLLLTESDITLDQANGLHYAVAYSDPKVVTQVLDLDMADVNFRNSRGYTVLHIAAMRREPTIIIPLIQKGANASDFTFDGRSAVNICRRLTRPKDYHTKTSRKEPSKYRLCIDILEREIRRNPLVSGDTPTCSHSMPEDLQMRLLYLEKRVGLAQLFFPAEANVAMDVANVEGTSECTGLLTPPPSNDTTENLGKVDLNETPYVQTKRMLTRMKALMKTVETGRRYFPSCYEVLDKYMDQYMDEEIPDMSYPEKGTVKERRQKRMRYNELKNDVKKAYSKDKVARSCLSSSSPASSLREALENPT
SA-induced cytoplasmic body/condensate (SINC) formation [1]: fail to form cytoplasmic condensates

B5: NPR3: Arabidopsis NPR1 paralog AtNPR3 (AT5G45110) (protein, UniProt Q8L746 1-586, looked up)
Regulatory protein NPR3: MATLTEPSSSLSFTSSHFSYGSIGSNHFSSSSASNPEVVSLTKLSSNLEQLLSNSDCDYSDAEIIVDGVPVGVHRCILAARSKFFQDLFKKEKKISKTEKPKYQLREMLPYGAVAHEAFLYFLSYIYTGRLKPFPLEVSTCVDPVCSHDCCRPAIDFVVQLMYASSVLQVPELVSSFQRRLCNFVEKTLVENVLPILMVAFNCKLTQLLDQCIERVARSDLYRFCIEKEVPPEVAEKIKQLRLISPQDEETSPKISEKLLERIGKILKALDSDDVELVKLLLTESDITLDQANGLHYSVVYSDPKVVAEILALDMGDVNYRNSRGYTVLHFAAMRREPSIIISLIDKGANASEFTSDGRSAVNILRRLTNPKDYHTKTAKGRESSKARLCIDILEREIRKNPMVLDTPMCSISMPEDLQMRLLYLEKRVGLAQLFFPTEAKVAMDIGNVEGTSEFTGLSPPSSGLTGNLSQVDLNETPHMQTQRLLTRMVALMKTVETGRRFFPYGSEVLDKYMAEYIDDDILDDFHFEKGSTHERRLKRMRYRELKDDVQKAYSKDKESKIARSCLSASSSPSSSSIRDDLHNTT
SA-induced cytoplasmic body/condensate (SINC) formation [1]: fail to form cytoplasmic condensates

B6: nls: NPR1 point mutant with enhanced cytoplasmic localization, blocking nuclear function (protein)
chain: MDTTIDGFADSYEISSTSFVATDNTDSSIVYLAAEQVLTGPDVSALQLLSNSFESVFDSPDDFYSDAKLVLSDGREVSFHRCVLSARSSFFKSALAAAKKEKDSNNTAAVKLELKEIAKDYEVGFDSVVTVLAYVYSSRVRPPPKGVSECADENCCHVACRPAVDFMLEVLYLAFIFKIPELITLYQRHLLDVVDKVVIEDTLVILKLANICGKACMKLLDRCKEIIVKSNVDMVSLEKSLPEELVKEIIDRRKELGLEVPKVKKHVSNVHKALDSDDIELVKLLLKEDHTNLDDACALHFAVAYCNVKTATDLLKLDLADVNHRNPRGYTVLHVAAMRKEPQLILSLLEKGASASEATLEGRTALMIAKQATMAVECNNIPEQCKHSLKGRLCVEILEQEDKREQIPRDVPPSFAVAADELKMTLLDLENRVALAQRLFPTEAQAAMEIAEMKGTCEFIVTSLEPDRLTGTKRTSPGVKIAPFRILEEHQSRLKALSKTVELGKRFFPRCSAVLDQIMNCEDLTQLACGEDDTAEKRLQQQQGYMEIQETLQQAFSEDNLELGNSSLTDSTSSTSKSTGGKRSNRKLSHRRR
modifications: left off: small tags and cut ends
CUL3 pull-down signal in co-IP (CUL3; 1 mM SA for 5 hr): significantly stronger CUL3 pull-down signals

B7: NPR6: development-associated NPR1 paralog AtNPR6 (AT3G57130) (protein, UniProt Q9M1I7 1-467, looked up)
Regulatory protein NPR6: MSNTFEESLKSMSLDYLNLLINGQAFSDVTFSVEGRLVHAHRCILAARSLFFRKFFCESDPSQPGAEPANQTGSGARAAAVGGVIPVNSVGYEVFLLLLQFLYSGQVSIVPHKHEPRSNCGDRGCWHTHCTAAVDLSLDILAAARYFGVEQLALLTQKHLTSMVEKASIEDVMKVLIASRKQDMHQLWTTCSYLIAKSGLPQEILAKHLPIELVAKIEELRLKSSMPLRSLMPHHHDLTSTLDLEDQKIRRMRRALDSSDVELVKLMVMGEGLNLDESLALIYAVENCSREVVKALLELGAADVNYPAGPTGKTALHIAAEMVSPDMVAVLLDHHADPNVQTVDGITPLDILRTLTSDFLFKGAIPGLTHIEPNKLRLCLELVQSAALVISREEGNNNSNDNNTMIYPRMKDEHTSGSSLDSRLVYLNLGATNRDIGDDNSNQREGMNLHHHHHDPSTMYHHHHHHF
condensate formation in the absence of SA (constitutive) ([1]; no SA treatment / mock): constitutive bodies
